From publication PMC2728795

Target: F-actin (freshly polymerized actin) (UniProt P68135)
Assay: co-sedimentation

Substance “GST(541–605,Δ25)PRG (from UniProt O15085 541-605) (domain or fragment)” has a percent bound at 5 µM F-actin of 10%.
